Results published in IntAct's records for PubMed 35512704.

B1: Mothers against decapentaplegic homolog 4 (Homo sapiens), Q13485 (parent)
chain: MDNMSITNTPTSNDACLSIVHSLMCHRQGGESETFAKRAIESLVKKLKEKKDELDSLITAITTNGAHPSKCVTIQRTLDGRLQVAGRKGFPHVIYARLWRWPDLHKNELKHVKYCQYAFDLKCDSVCVNPYHYERVVSPGIDLSGLTLQSNAPSSMMVKDEYVHDFEGQPSLSTEGHSIQTIQHPPSNRASTETYSTPALLAPSESNATSTANFPNIPVASTSQPASILGGSHSEGLLQIASGPQPGQQQNGFTGQPATYHHNSTTTWTGSRTAPYTPNLPHHQNGHLQHHPPMPPHPGHYWPVHNELAFQPPISNHPAPEYWCSIAYFEMDVQVGETFKVPSSCPIVTVDGYVDPSGGDRFCLGQLSNVHRTEAIERARLHIGKGVQLECKGEGDVWVRCLSDHAVFVQSYYLDREAGRAPGDAVHKIYPSAYIKVFDLRQCHRQMQQQAATAQAAAAAQAAAVAGNIPGPGSVGGIAPAISLSAAAGIGVDDLRRLCILRMSFVKGWGPDYPRQSIKETPCWIEIHLHRALQLLDEVLHTMPIADPQPLD

Variants of: B1
Details: with grm1_human GRM1, Q13255

effect of a mutation on the interaction | Variant
with no effect | R361C

Variants of: B1
Details: with grm3_human GRM3, Q14832

effect of a mutation on the interaction | Variant
with no effect | R361C

Variants of: B1
Details: with gsk3a_human GSK3A

effect of a mutation on the interaction | Variant
with no effect | R361C

Variants of: B1
Details: with hdac1_human HDAC1, Q13547

effect of a mutation on the interaction | Variant
with no effect | R361C

Variants of: B1
Details: with hdac3_human HDAC3, O15379

effect of a mutation on the interaction | Variant
with no effect | R361C

Variants of: B1
Details: with hgf_human HGF

effect of a mutation on the interaction | Variant
with no effect | R361C

Variants of: B1
Details: with h31_human H3C1, P68431

effect of a mutation on the interaction | Variant
with no effect | R361C

Variants of: B1
Details: with hlab_human HLA-B

effect of a mutation on the interaction | Variant
with no effect | R361C

Variants of: B1
Details: with hnf1a_human HNF1A

effect of a mutation on the interaction | Variant
with no effect | R361C

Variants of: B1
Details: with rash_human HRAS

effect of a mutation on the interaction | Variant
with no effect | R361C

Variants of: B1
Details: with hs90a_human HSP90AA1, P07900

effect of a mutation on the interaction | Variant
with no effect | R361C

Variants of: B1
Details: with il7ra_human IL7R

effect of a mutation on the interaction | Variant
with no effect | R361C

Variants of: B1
Details: with irf6_human IRF6, O14896

effect of a mutation on the interaction | Variant
with no effect | R361C

Variants of: B1
Details: with irs1_human IRS1, P35568

effect of a mutation on the interaction | Variant
with no effect | R361C

Variants of: B1
Details: with jak1_human JAK1, P23458

effect of a mutation on the interaction | Variant
with no effect | R361C

Variants of: B1
Details: with jak3_human JAK3, P52333

effect of a mutation on the interaction | Variant
with no effect | R361C

Variants of: B1
Details: with kdm5c_human KDM5C

effect of a mutation on the interaction | Variant
with no effect | R361C

Variants of: B1
Details: with vgfr2_human KDR

effect of a mutation on the interaction | Variant
with no effect | R361C

Variants of: B1
Details: with keap1_human KEAP1, Q14145

effect of a mutation on the interaction | Variant
with no effect | R361C

Variants of: B1
Details: with klf4_human KLF4, O43474

effect of a mutation on the interaction | Variant
with no effect | R361C

Variants of: B1
Details: with maga6_human MAGEA6, P43360

effect of a mutation on the interaction | Variant
with no effect | R361C

Variants of: B1
Details: with mp2k7_human MAP2K7, O14733
Chain of mp2k7_human MAP2K7, O14733 (O14733 whole entry): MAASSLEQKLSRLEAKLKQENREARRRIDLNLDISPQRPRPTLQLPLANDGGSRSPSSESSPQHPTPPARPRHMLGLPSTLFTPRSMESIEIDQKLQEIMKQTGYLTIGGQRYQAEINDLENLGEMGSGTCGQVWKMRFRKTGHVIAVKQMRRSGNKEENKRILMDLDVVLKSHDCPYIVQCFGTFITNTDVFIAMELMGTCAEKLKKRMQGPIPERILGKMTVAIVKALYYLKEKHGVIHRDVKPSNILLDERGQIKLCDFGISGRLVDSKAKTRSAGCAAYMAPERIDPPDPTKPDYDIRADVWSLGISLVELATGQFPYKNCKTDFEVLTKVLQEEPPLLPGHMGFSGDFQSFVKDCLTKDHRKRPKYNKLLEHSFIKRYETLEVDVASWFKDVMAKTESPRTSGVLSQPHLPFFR

effect of a mutation on the interaction | Variant
with no effect | R361C

Variants of: B1
Details: with m3k1_human MAP3K1, Q13233

effect of a mutation on the interaction | Variant
with no effect | R361C

Variants of: B1
Details: with mk10_human MAPK10, P53779

effect of a mutation on the interaction | Variant
with no effect | R361C

Variants of: B1
Details: with mk14_human MAPK14, Q16539
Chain of mk14_human MAPK14, Q16539 (Q16539 whole entry): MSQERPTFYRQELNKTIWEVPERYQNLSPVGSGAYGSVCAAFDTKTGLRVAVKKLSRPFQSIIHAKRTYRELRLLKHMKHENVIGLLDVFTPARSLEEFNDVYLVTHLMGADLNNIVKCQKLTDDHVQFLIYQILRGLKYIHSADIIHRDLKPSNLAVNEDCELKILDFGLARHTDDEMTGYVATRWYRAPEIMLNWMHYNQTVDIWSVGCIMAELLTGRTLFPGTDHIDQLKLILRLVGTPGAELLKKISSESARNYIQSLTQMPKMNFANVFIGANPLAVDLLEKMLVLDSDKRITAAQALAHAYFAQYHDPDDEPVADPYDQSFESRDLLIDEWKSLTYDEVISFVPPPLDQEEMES

effect of a mutation on the interaction | Variant
with no effect | R361C

Variants of: B1
Details: with mk03_human MAPK3, P27361
Chain of mk03_human MAPK3, P27361 (P27361 whole entry): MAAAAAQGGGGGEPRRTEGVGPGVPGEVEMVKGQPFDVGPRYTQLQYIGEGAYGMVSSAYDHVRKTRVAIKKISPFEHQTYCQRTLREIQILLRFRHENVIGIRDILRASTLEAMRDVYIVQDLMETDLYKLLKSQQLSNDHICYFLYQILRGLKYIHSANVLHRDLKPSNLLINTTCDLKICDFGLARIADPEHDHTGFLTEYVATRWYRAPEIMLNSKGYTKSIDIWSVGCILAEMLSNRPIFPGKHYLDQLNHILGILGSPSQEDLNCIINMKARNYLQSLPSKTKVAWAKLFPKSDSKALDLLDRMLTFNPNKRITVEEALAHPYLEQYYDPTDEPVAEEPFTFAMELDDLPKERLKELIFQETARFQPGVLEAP

effect of a mutation on the interaction | Variant
with no effect | R361C

Variants of: B1
Details: with mk04_human MAPK4, P31152

effect of a mutation on the interaction | Variant
with no effect | R361C

Variants of: B1
Details: with mk06_human MAPK6, Q16659

effect of a mutation on the interaction | Variant
with no effect | R361C

Variants of: B1
Details: with mcl1_human MCL1, Q07820
Chain of mcl1_human MCL1, Q07820 (Q07820 whole entry): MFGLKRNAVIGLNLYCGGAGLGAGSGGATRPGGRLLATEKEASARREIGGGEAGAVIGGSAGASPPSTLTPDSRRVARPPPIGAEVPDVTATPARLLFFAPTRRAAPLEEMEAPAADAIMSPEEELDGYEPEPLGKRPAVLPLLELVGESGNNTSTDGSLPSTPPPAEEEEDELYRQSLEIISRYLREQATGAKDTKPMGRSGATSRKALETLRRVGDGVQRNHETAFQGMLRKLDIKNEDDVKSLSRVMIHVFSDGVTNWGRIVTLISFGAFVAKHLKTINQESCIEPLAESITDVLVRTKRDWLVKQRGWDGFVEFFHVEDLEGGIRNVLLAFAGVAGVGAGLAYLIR

effect of a mutation on the interaction | Variant
with no effect | R361C

Variants of: B1
Details: with mitf_human MITF

effect of a mutation on the interaction | Variant
with no effect | R361C

Variants of: B1
Details: with myc_human MYC

effect of a mutation on the interaction | Variant
with no effect | R361C

Variants of: B1
Details: with nf1_human NF1, P21359

effect of a mutation on the interaction | Variant
with no effect | R361C

Variants of: B1
Details: with merl_human NF2, P35240

effect of a mutation on the interaction | Variant
with no effect | R361C

Variants of: B1
Details: with nfic_human NFIC

effect of a mutation on the interaction | Variant
with no effect | R361C

Variants of: B1
Details: with notc2_human NOTCH2, Q04721

effect of a mutation on the interaction | Variant
with no effect | R361C

Variants of: B1
Details: with pak3_human PAK3, O75914

effect of a mutation on the interaction | Variant
with no effect | R361C

Variants of: B1
Details: with pax5_human PAX5, Q02548
Chain of pax5_human PAX5, Q02548 (Q02548 whole entry): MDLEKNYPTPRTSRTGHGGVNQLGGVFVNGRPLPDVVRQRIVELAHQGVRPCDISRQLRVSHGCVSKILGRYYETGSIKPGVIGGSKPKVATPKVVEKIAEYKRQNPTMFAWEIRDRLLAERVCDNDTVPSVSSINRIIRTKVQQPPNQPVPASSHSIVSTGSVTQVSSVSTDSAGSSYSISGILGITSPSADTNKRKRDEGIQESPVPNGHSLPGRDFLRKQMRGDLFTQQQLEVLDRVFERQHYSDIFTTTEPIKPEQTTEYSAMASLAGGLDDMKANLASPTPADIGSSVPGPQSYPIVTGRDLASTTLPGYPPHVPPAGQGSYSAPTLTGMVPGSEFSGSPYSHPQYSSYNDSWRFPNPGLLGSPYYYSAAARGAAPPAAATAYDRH

effect of a mutation on the interaction | Variant
with no effect | R361C

Variants of: B1
Details: with pax9_human PAX9, P55771

effect of a mutation on the interaction | Variant
with no effect | R361C

Variants of: B1
Details: with pb1_human PBRM1, Q86U86

effect of a mutation on the interaction | Variant
with no effect | R361C

Variants of: B1
Details: with pcbp1_human PCBP1, Q15365
Chain of pcbp1_human PCBP1, Q15365 (Q15365 whole entry): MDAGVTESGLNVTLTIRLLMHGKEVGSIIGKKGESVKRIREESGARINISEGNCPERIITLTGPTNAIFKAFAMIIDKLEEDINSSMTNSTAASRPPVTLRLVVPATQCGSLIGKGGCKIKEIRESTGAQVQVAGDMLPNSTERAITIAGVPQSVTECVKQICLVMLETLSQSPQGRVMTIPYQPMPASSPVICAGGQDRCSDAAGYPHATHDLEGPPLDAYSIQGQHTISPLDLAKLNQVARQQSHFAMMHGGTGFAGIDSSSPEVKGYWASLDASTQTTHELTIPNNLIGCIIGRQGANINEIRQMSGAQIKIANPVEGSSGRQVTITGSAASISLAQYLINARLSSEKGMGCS

effect of a mutation on the interaction | Variant
with no effect | R361C

Variants of: B1
Details: with pgfra_human PDGFRA

effect of a mutation on the interaction | Variant
with no effect | R361C

Variants of: B1
Details: with pgfrb_human PDGFRB

effect of a mutation on the interaction | Variant
with no effect | R361C

Variants of: B1
Details: with pdk1_human PDK1, Q15118
Chain of pdk1_human PDK1, Q15118 (Q15118 whole entry, looked up): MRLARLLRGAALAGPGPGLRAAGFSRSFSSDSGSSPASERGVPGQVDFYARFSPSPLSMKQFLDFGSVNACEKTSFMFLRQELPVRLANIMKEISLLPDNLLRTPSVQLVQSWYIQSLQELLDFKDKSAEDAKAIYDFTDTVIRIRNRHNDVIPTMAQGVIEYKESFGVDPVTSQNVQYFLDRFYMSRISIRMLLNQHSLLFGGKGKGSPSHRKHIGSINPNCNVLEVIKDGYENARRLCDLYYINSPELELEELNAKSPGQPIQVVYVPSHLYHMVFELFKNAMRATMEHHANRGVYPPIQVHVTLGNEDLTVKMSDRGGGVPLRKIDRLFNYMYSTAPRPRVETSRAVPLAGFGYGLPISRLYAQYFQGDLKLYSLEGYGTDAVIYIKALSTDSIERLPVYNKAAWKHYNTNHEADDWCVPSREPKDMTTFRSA

effect of a mutation on the interaction | Variant
with no effect | R361C

Variants of: B1
Details: with PIK3C2B

effect of a mutation on the interaction | Variant
with no effect | R361C

Variants of: B1
Details: with pk3c3_human PIK3C3, Q8NEB9

effect of a mutation on the interaction | Variant
with no effect | R361C

Variants of: B1
Details: with pk3ca_human PIK3CA

effect of a mutation on the interaction | Variant
with no effect | R361C

Variants of: B1
Details: with pk3cg_human PIK3CG

effect of a mutation on the interaction | Variant
with no effect | R361C

Variants of: B1
Details: with p85a_human PIK3R1, P27986
Chain of p85a_human PIK3R1, P27986 (P27986 whole entry): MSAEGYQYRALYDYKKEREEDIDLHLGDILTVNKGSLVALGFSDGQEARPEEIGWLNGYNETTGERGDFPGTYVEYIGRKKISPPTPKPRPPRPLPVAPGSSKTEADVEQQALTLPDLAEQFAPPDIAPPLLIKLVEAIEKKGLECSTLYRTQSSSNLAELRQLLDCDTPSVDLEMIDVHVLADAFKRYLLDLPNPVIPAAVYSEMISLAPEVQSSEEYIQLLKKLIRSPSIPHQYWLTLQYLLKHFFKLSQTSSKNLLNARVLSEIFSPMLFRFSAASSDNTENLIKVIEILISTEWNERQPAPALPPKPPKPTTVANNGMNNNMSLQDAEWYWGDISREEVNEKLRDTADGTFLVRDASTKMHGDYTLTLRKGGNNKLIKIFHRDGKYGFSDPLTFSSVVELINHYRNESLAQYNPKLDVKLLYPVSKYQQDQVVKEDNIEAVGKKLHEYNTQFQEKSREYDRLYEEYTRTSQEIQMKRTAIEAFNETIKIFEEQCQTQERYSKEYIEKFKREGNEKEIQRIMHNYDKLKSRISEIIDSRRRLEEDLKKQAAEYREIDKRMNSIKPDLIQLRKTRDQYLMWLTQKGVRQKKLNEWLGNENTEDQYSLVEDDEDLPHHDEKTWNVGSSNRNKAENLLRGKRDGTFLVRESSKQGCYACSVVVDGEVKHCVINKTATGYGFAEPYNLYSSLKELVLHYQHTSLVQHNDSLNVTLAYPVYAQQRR

effect of a mutation on the interaction | Variant
with no effect | R361C

Variants of: B1
Details: with p85b_human PIK3R2, O00459

effect of a mutation on the interaction | Variant
with no effect | R361C

Variants of: B1
Details: with dpod1_human POLD1, P28340

effect of a mutation on the interaction | Variant
with no effect | R361C

Variants of: B1
Details: with dpoe1_human POLE

effect of a mutation on the interaction | Variant
with no effect | R361C

Variants of: B1
Details: with lipa1_human PPFIA1, Q13136

effect of a mutation on the interaction | Variant
with no effect | R361C

Variants of: B1
Details: with 2aaa_human PPP2R1A

effect of a mutation on the interaction | Variant
with no effect | R361C

Variants of: B1
Details: with prdm1_human PRDM1, O75626
Chain of prdm1_human PRDM1, O75626 (O75626 whole entry): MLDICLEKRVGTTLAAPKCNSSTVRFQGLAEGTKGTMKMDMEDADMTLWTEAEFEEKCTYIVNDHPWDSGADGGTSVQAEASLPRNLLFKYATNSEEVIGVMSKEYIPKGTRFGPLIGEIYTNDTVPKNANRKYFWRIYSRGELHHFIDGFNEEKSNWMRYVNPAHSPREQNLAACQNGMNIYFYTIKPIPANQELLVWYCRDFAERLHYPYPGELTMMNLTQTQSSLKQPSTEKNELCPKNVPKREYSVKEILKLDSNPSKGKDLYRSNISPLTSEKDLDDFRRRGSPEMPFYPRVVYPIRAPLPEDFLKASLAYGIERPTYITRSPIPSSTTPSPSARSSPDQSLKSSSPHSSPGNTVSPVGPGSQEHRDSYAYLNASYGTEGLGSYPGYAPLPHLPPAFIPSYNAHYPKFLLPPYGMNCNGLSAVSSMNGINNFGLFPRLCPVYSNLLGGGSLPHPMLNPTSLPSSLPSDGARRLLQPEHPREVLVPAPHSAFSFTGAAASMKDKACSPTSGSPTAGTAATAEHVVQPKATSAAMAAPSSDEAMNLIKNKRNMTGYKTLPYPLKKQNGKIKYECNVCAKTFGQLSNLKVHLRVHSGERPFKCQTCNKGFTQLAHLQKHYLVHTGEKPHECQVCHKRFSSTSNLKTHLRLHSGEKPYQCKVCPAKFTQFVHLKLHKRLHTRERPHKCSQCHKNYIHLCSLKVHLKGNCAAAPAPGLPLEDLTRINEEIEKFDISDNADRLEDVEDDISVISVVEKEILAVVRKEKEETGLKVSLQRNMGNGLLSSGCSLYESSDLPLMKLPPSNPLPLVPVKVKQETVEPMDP

effect of a mutation on the interaction | Variant
with no effect | R361C

Variants of: B1
Details: with aapk2_human PRKAA2, P54646
Chain of aapk2_human PRKAA2, P54646 (P54646 whole entry, looked up): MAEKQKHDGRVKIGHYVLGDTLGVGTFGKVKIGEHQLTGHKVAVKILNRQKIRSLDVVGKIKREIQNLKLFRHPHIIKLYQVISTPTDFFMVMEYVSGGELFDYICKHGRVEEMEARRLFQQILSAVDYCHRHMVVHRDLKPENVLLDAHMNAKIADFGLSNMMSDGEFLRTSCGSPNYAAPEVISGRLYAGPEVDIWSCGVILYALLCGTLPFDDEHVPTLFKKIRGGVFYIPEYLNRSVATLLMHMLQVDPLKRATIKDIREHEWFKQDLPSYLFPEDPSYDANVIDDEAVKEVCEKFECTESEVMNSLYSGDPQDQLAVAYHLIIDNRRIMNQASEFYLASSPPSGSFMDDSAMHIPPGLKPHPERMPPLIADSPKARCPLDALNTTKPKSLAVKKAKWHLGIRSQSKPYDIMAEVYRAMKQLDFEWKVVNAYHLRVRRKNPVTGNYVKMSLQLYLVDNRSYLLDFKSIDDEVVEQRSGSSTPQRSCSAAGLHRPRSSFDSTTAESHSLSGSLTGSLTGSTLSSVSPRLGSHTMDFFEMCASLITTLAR

effect of a mutation on the interaction | Variant
with no effect | R361C

Variants of: B1
Details: with aakb2_human PRKAB2, O43741

effect of a mutation on the interaction | Variant
with no effect | R361C

Variants of: B1
Details: with prss8_human PRSS8, Q16651

effect of a mutation on the interaction | Variant
with no effect | R361C

Variants of: B1
Details: with ptk6_human PTK6, Q13882

effect of a mutation on the interaction | Variant
with no effect | R361C

Variants of: B1
Details: with tf65_human RELA

effect of a mutation on the interaction | Variant
with no effect | R361C

Variants of: B1
Details: with rnf43_human RNF43, Q68DV7

effect of a mutation on the interaction | Variant
with no effect | R361C
